Data from patent publication US20180237527A1 (METIS PRECISION MEDICINE SB S R L, published 2018).

B1: chimerized DN30 Fab (MvDN30) (Fab)
heavy: QVQLQQPGTELVKPGASVKLSCKASGYTFTSYWIHWVKQRPGQGLEWIGEINPSSGRTNYNEKFKNKVTVTVDKSSTTAYMQLSNLTSEDSAVYYCASRGYWGQGTTLTVSSASTKGPSVFPLAPSSKSTSGGTAALGCLVKDYFPEPVTVSWNSGALTSGVHTFPAVLQSSGLYSLSSVVTVPSSSLGTQTYICNVNHKPSNTKVDKKVEPKSC
light: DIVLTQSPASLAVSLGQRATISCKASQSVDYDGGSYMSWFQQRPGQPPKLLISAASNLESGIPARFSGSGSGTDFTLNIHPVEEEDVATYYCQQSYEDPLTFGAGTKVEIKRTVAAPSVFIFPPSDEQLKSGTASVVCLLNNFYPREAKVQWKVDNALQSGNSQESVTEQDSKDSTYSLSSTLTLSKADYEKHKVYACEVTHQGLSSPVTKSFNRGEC
notes: also called chimeric MvDN30; chimeric DN30 Fab
B2: DCD-MvDN30.1 (Dual Constant Domain Fab with the duplicated constant domains in tandem) (Fab)
heavy: QVQLQQPGTELVKPGASVKLSCKASGYTFTSYWIHWVKQRPGQGLEWIGEINPSSGRTNYNEKFKNKVTVTVDKSSTTAYMQLSNLTSEDSAVYYCASRGYWGQGTTLTVSSASTKGPSVFPLAPSSKSTSGGTAALGCLVKDYFPEPVTVSWNSGALTSGVHTFPAVLQSSGLYSLSSVVTVPSSSLGTQTYICNVNHKPSNTKVDKKVEPKSCASTKGPSVFPLAPSSKSTSGGTAALGCLVKDYFPEPVTVSWNSGALTSGVHTFPAVLQSSGLYSLSSVVTVPSSSLGTQTYICNVNHKPSNTKVDKKVEPKSCDKTHTGAAWSHPQFEKGAAWSHPQFEKGAAWSHPQFEKGAAHHHHHH
light: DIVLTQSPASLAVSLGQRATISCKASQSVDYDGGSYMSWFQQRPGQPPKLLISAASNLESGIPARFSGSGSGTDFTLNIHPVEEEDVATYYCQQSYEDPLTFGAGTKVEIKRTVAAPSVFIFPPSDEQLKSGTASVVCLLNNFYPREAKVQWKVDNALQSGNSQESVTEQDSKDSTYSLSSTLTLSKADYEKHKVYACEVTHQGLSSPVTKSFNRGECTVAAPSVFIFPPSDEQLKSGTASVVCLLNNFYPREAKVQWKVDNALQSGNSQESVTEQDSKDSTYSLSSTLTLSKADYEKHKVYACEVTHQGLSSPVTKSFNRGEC
notes: also called DCD-Fab
B3: DCD-MvDN30.2 (Dual Constant Domain Fab with the duplicated constant domains swapped reciprocally) (Fab)
heavy: QVQLQQPGTELVKPGASVKLSCKASGYTFTSYWIHWVKQRPGQGLEWIGEINPSSGRTNYNEKFKNKVTVTVDKSSTTAYMQLSNLTSEDSAVYYCASRGYWGQGTTLTVSSASTKGPSVFPLAPSSKSTSGGTAALGCLVKDYFPEPVTVSWNSGALTSGVHTFPAVLQSSGLYSLSSVVTVPSSSLGTQTYICNVNHKPSNTKVDKKVEPKSCTVAAPSVFIFPPSDEQLKSGTASVVCLLNNFYPREAKVQWKVDNALQSGNSQESVTEQDSKDSTYSLSSTLTLSKADYEKHKVYACEVTHQGLSSPVTKSFNRGEC
light: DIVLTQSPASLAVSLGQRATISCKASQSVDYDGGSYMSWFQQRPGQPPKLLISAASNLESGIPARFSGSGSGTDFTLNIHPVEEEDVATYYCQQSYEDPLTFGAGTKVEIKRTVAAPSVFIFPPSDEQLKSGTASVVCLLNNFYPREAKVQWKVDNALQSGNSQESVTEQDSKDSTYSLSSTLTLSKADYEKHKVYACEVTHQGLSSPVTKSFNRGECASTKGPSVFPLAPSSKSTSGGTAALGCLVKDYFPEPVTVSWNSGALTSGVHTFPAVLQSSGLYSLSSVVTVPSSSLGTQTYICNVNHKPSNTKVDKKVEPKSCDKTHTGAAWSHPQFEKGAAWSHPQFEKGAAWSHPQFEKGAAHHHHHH
notes: also called DCD-Fab

Each binder was assayed against T1, Met-Fc chimera (human, UniProt P08581 25-932) (assay: ELISA, Met-Fc chimera in solid phase, antibody fragment in liquid phase, anti-strepTAG detection).
T1 construct: extracellular domain;domain: Fc domain; Bought from R&D Systems; also called Fc-Met; Met ectodomain; not shown: Fc domain derived from a human IgG
T1 sequence (P08581 25-932, change not shown): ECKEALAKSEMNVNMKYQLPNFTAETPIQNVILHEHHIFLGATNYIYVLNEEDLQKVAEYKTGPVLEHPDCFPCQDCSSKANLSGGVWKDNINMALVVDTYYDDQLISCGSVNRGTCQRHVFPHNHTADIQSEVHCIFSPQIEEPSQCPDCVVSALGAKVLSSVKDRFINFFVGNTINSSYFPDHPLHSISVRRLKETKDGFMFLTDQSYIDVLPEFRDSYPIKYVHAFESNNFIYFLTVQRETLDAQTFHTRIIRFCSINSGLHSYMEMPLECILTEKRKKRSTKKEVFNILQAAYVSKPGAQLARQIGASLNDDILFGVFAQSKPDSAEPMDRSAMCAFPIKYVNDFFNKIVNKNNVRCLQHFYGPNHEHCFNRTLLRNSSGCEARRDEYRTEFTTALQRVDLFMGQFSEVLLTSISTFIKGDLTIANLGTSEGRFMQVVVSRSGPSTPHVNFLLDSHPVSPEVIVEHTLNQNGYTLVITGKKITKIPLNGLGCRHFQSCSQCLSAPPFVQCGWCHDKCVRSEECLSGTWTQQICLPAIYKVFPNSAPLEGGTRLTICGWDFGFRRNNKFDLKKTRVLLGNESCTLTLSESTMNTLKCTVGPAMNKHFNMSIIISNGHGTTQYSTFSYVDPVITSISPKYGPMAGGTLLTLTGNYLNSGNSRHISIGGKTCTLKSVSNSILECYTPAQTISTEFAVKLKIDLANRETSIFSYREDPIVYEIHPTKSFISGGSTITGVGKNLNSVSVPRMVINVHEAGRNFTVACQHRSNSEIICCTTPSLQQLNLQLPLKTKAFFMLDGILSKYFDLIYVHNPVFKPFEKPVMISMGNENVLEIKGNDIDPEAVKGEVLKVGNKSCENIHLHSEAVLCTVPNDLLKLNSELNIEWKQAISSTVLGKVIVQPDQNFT
Procedure: Purified DCD-MvDN30.1 and DCD-MvDN30.2 were characterized for their ability to bind the Met receptor. To this end, the present inventors performed ELISA assays using Met ectodomain in solid phase and MvDN30, DCD-MvDN30.1 and DCD-MvDN30.2 in liquid phase.
[…] […] Data were analyzed and fit using Prism software (Graph Pad Software, San Diego, Calif.). Met-Fc chimera is a fusion protein wherein the Fc domain derived from a human IgG is fused in frame with the Met extracellular portion.
Work on B1 yielded a Kd of 141 pM.
Binder B2 has a Kd of 133 pM.
Work on B3 yielded a Kd of 130 pM.
